Reference: US20200041497, “ANALYTE DETECTION METHOD” (IMPERIAL COLLEGE INNOVATIONS LIMITED, published 2020)

Legend:
[1] = target: T1, alpha-thrombin (Homo sapiens, UniProt P00734;P00734 P00734:328-363,P00734:364-622); assay: EMSA; 200 nM TBA, 0-500 nM thrombin; 50 mM Tris, 140 mM NaCl, 1 mM MgCl2 pH 7.4
[2] = target: T1, alpha-thrombin; assay: nanopore translocation on lambda-DNA carrier; 100 mM KCl, 10 mM Tris, 1 mM EDTA pH 8
[3] = target: acetylcholinesterase (AChE) (UniProt O42275 O42275:24-633); assay: EMSA; AChE 660 nM, modified aptamer 0-5000 nM; 2.7 mM KCl, 4 mM MgCl2 PBS pH 7.4, 1 h; settings: tags: Sigma-Aldrich, UK; M.W. 280 kDa as stated; chain copies: 4; aptamer with extension hybridised to lambda-DNA 3' end
Experimental: FIG. 20: Electrophoretic mobility shift assay (EMSA) to confirm the binding of the aptamers to thrombin and AChE targets. All gels shown above include a 25 bp ladder and indicated as M in the gel. (i) Thrombin (750 nM) was incubated with different concentration of modified TBA aptamer (top left) ranging from 0-5000 nM in 140 mM NaCl, 20 mM MgCl2, 20 mM PBS buffer pH 7.4 for 45 mins. The 7 lanes on the gel represent the following concentrations of aptamer (from left to right): 0, 50, 100, 250, 500, 1000 and 5000 nM. The samples were then loaded on a 10% native polyacrylamide cast gel and ran for 75 min at 80V and stained with SYBR gold and imaged under UV. […] (ii) modified TBA (200 nM) was then incubated with different concentration of thrombin in the same binding buffer as (i) for 45 min. The […] consist of different thrombin concentration from left to right: 0, 250, 500, 1000, 1500, 2500, 5000 and 7500 nM. The samples were then loaded to a 10% native polyacrylamide cast gels and ran for 75 min at 80V and stained with SYBR gold and imaged. (iii) AChE (660 nM) was incubated with different concentration of modified AChE aptamer ranging from 0-5000 nM in 2.7 mM KCl, 4 mM MgCl2 PBS buffer pH 7.4 for 1 hour. […]

Sequence of acetylcholinesterase (AChE) (O42275 24-633, one chain of several): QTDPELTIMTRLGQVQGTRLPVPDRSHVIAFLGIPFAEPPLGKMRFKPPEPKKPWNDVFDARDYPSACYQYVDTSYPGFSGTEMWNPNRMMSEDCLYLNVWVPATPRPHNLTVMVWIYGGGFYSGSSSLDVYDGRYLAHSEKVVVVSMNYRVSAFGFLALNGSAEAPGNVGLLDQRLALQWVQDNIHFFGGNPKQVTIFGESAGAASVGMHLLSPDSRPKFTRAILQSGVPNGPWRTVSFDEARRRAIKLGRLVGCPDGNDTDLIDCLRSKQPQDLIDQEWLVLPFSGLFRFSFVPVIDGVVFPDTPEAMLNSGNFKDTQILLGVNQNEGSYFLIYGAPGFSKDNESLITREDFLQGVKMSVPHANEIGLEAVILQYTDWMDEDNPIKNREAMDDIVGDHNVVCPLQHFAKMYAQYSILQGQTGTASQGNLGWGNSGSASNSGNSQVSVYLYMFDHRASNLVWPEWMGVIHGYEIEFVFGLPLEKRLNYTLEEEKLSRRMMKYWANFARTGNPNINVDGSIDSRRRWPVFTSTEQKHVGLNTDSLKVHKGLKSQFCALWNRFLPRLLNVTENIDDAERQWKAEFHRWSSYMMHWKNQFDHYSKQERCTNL

GGTTGGTGTGGTTGG (ssDNA) [TBA 15-mer]: binds [1].

B1: TBA detection probe iii (69-mer) (ssDNA)
DNA: GGTTGGTGTGGTTGGTTTTTTTTTGTCTTTTTTTTTTTTCTGTTTTTAAAAACTTACGCACGACACCTT
B1: binds [2].

B2: TBA detection probe ii (51-mer) (ssDNA)
DNA: GGTTGGTGTGGTTGGGGGCGGCGACCTAAGGTGTCGTGCGTAAGTTTTTAA
B2: binds [2].

B3: AChE detection probe (75-mer) (ssDNA)
DNA: GGTTGACTGTAGCTCTGGCAGACGTAGTGTGAAGGTACCGGGCGGCGACCTAAGGTGTCGTGCGTAAGTTTTTAA
B3: binds [3].
